Source: patent US12329823B2 (The Scripps Research Institute, priority 2021, dated 2025)
Where two headings read alike, the source gives them in different places.

Tests used:
human GIPR = target: T1, human GIPR (Homo sapiens, UniProt P48546); assay: In vitro receptor activation reporter assay (CRE-Luc, HEK293-GIPR-CRE cells; receptor-mediated cAMP synthesis); format: cell-based
T1 construct: expressed in transfected cells; host or cells: HEK293 (CRE-HEK293, HEK293-GIPR-CRE)
T1 sequence (P48546 22-466): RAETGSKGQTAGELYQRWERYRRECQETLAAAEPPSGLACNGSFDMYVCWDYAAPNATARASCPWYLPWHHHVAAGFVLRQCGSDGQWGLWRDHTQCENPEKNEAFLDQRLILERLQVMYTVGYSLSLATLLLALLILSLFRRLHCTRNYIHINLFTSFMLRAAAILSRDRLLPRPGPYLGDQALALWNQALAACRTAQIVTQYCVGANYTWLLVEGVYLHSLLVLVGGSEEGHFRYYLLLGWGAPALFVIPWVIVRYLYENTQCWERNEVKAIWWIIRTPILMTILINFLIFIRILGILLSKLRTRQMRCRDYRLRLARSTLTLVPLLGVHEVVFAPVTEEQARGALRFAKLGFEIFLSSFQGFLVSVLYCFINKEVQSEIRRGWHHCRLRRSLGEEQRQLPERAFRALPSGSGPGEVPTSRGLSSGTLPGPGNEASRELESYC
Procedure: HEK293 cells were infected with lentivirus encoding firefly luciferase gene under the control of cAMP responsive element (CRE) promoter (Qiagen, The Netherlands) and then were selected using 1 μg mL^−1 puromycin (Life Technologies, Carlsbad) for 1 week. The surviving cells (referred to as CRE-HEK293) were expanded and then transfected with a G418 selective mammalian expression plasmid encoding human GLP-1R or GIPR. In brief, GLP-1R or GIPR plasmid was transfected into CRE-HEK293 cells using Lipofectamine 2000 and selected with 400 μg mL^−1 Geneticin (Life Technologies, Carlsbad, CA). Single colony stable cell line overexpressing CRE-luciferase and GLP-1R or GIPR (HEK293-GLP-1R-CRE or HEK293-GIPR-CRE) was then established for in vitro activity assay.

mouse GLP1R = target: T2, mouse GLP1R (Mus musculus, UniProt O35659); assay: In vitro potency, mouse GLP1R activation (receptor-mediated cAMP synthesis); format: cell-based; settings: Table 12
T2 sequence (O35659 22-463): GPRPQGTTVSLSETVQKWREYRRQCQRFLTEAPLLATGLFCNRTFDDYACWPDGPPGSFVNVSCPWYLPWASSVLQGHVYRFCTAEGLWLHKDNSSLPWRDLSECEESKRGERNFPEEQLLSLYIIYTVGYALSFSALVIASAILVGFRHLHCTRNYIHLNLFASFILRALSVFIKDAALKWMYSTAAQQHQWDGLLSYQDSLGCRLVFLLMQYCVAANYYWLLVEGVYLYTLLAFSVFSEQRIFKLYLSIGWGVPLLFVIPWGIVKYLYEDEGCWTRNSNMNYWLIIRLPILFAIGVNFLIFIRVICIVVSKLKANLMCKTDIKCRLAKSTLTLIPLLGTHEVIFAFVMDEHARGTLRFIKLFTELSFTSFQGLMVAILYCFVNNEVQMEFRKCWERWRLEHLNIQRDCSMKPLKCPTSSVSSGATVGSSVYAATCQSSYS
Procedure: GLP-1R-CRE or HEK293-GIPR-CRE cells were seeded in 384-well plates at a density of 5000 cells per well and cultured for 18 h in DMEM with 10% FBS at 37° C. and 5% CO2. Cells were treated with peptides in a dose dependent manner for 24 h, and receptor activation was reported by luminescence intensities, using One-Glo (Promega, WI) luciferase reagent following manufacturer's instruction. The EC50 of each peptide was determined using GraphPad Prism 6 software (GraphPad, San Diego, CA). Results are depicted in FIGS. 6A-6B, FIGS. 7A-7B, FIGS. 8A-8B, FIGS. 9A-9B, and Tables 7-12. Measurements of peptide conjugate potency were expressed as half maximal effective concentration (EC50) values.

mouse GIPR = target: T3, mouse GIPR (Mus musculus, UniProt Q0P543); assay: In vitro potency, mouse GIPR activation (receptor-mediated cAMP synthesis); format: cell-based; settings: Table 12
T3 sequence (Q0P543 19-460): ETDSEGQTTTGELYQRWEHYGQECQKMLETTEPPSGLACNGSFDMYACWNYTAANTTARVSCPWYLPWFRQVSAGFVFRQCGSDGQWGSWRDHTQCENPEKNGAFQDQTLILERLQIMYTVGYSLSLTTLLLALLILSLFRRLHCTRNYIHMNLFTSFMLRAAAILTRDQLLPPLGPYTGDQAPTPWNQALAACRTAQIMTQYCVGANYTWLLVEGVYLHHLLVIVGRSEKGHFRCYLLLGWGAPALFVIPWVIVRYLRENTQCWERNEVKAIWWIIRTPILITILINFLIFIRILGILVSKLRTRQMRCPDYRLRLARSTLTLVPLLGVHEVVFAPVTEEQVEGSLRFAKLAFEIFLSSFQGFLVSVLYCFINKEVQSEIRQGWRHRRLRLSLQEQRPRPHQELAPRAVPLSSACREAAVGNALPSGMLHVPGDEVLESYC

[1] = Pharmacokinetics in CD-1 mouse, I.V. or S.C. 1 mg/kg, plasma concentration by LC-MS; settings: for AUC(0-inf): AUCINF; for MRT last: MRTLAST; for half-life: T1/2, Table 14;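 as to all read-outs here: peptide levels in plasma quantified by LC-MS across multiple sampling times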
Procedure: The peptide plasma concentration at various time points was determined using LC-MS.

human GLP-1R = human GLP-1R (Homo sapiens, UniProt P43220); assay: In vitro receptor activation reporter assay (CRE-Luc, HEK293-GLP-1R-CRE cells; receptor-mediated cAMP synthesis); format: cell-based; set-up: expressed in transfected cells; host or cells: HEK293 (CRE-HEK293, HEK293-GLP-1R-CRE)
[2] = mouse, in vivo, iv, 1 mg/kg, Table 14, IV 1 mg/kg
[3] = mouse, in vivo, sc, 1 mg/kg, Table 14, SC 1 mg/kg

human GLP-1R, sequence (P43220 24-463): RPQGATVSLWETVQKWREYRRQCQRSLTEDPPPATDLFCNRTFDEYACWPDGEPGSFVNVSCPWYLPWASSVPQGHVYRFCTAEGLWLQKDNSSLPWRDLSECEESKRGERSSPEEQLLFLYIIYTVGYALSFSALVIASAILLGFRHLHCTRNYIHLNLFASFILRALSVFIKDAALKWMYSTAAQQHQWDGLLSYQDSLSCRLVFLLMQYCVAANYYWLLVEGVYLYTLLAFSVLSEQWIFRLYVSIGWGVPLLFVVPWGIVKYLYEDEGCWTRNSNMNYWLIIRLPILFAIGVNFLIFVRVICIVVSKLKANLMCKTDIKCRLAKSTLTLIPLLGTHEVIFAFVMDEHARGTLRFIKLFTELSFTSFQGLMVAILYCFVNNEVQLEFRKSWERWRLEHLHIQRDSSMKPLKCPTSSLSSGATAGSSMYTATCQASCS

CC[C@H](C)[C@H](NC(=O)[C@H](CC(C)C)NC(=O)[C@H](Cc1c[nH]c2ccccc12)NC(=O)[C@@H]1CSCC(=O)NCCN(C(=O)CCC(=O)NCCOCCOCCC(=O)NCCOCCOCCC(=O)NCCCC[C@H](NC(=O)CCCCCCCCCCCCCCCCCCC(=O)O)C(=O)O)CCNC(=O)CSC[C@H](NC(=O)[C@H](CCCCN)NC(=O)[C@H](CC(=O)O)NC(=O)[C@H](CC(C)C)NC(=O)[C@H](Cc2ccc(O)cc2)NC(=O)[C@@H](NC(=O)[C@H](CO)NC(=O)[C@H](Cc2ccc(O)cc2)NC(=O)[C@H](CC(=O)O)NC(=O)[C@H](CO)NC(=O)[C@@H](NC(=O)[C@H](Cc2ccccc2)NC(=O)[C@@H](NC(=O)CNC(=O)[C@H](CCC(=O)O)NC(=O)C(C)(C)NC(=O)[C@@H](N)Cc2ccc(O)cc2)[C@@H](C)O)[C@@H](C)O)[C@@H](C)CC)C(=O)N[C@@H](C)C(=O)N[C@@H](C)C(=O)NC(C)(C)C(=O)N[C@@H](CCC(=O)O)C(=O)N[C@@H](Cc2ccccc2)C(=O)N[C@@H](C(C)C)C(=O)N1)C(=O)N[C@@H](C)C(=O)NCC(=O)NCC(=O)N1CCC[C@H]1C(=O)N[C@@H](CO)C(=O)N[C@@H](CO)C(=O)NCC(=O)N[C@@H](C)C(=O)N1CCC[C@H]1C(=O)N1CCC[C@H]1C(=O)N1CCC[C@H]1C(=O)N[C@@H](CO)C(N)=O [mCMV268]
EC50 (human GIPR; In Vitro Potency GIPR EC50, 10% FBS, Table 11, human, 10% FBS): 0.09 ± 0.02 nM
EC50 (human GIPR; Table 11, human, No Serum, read-out: In Vitro Potency GIPR EC50, No Serum): 0.01 ± 0.01 nM
EC50 (human GIPR; unnumbered table, average of runs, read-out: EC50 GIPR average): 0.04 nM
EC50 (human GIPR; unnumbered table, run 02/19, read-out: EC50 GIPR 02/19): 0.05 nM
EC50 (human GIPR; unnumbered table, run 03/25, read-out: EC50 GIPR 03/25): 0.04 nM
EC50 (human GIPR; unnumbered table, run 03/26, read-out: EC50 GIPR 03/26): 0.03 nM
EC50 (mouse GLP1R): 0.26 nM
EC50 (mouse GIPR): 0.26 nM
bioavailability ([1]; CD-1, mouse, plasma, sc, 1 mg/kg): 64%
Cl ([1]; Table 14, SC 1 mg/kg): 4.8 mL/h/kg
Vd ([1]; Table 14, SC 1 mg/kg): 0.087 L/kg
clearance ([1]; mouse, in vivo, iv, 1 mg/kg): 3 mL/h/kg
AUC(0-t) ([1]; mouse, in vivo, iv, 1 mg/kg, AUC0-24, Table 14, IV 1 mg/kg): 204 µg·h/mL
AUC(0-inf) [1, 2]: 327 µg·h/mL
AUC(0-t) ([1]; mouse, in vivo, iv, 1 mg/kg, AUCLAST, Table 14, IV 1 mg/kg): 315 µg·h/mL
Cmax [1, 2]: 34 µg/mL
MRT last [1, 2]: 19.5 h
half-life ([1]; mouse, in vivo, iv, 1 mg/kg, IV 1 mg/kg): 14.8 h
Tmax [1, 2]: 0.5 h
Vd ([1]; mouse, in vivo, iv, 1 mg/kg, Vd, Table 14, IV 1 mg/kg): 0.067 L/kg
AUC(0-t) ([1]; mouse, in vivo, sc, 1 mg/kg, AUC0-24, Table 14, SC 1 mg/kg): 92.1 µg·h/mL
AUC(0-inf) [1, 3]: 208 µg·h/mL
AUC(0-t) ([1]; mouse, in vivo, sc, 1 mg/kg, AUCLAST, Table 14, SC 1 mg/kg): 200 µg·h/mL
Cmax [1, 3]: 4.78 µg/mL
MRT last [1, 3]: 27.8 h
half-life ([1]; mouse, in vivo, sc, 1 mg/kg, SC 1 mg/kg): 12.8 h
Tmax [1, 3]: 24 h
EC50 (human GLP-1R; In Vitro Potency GLPIR EC50, 10% FBS, Table 11, human, 10% FBS): 1.96 ± 0.46 nM
EC50 (human GLP-1R; unnumbered table, average of runs, read-out: EC50 GLP1R average): 0.03 nM
EC50 (human GLP-1R; unnumbered table, run 02/19, read-out: EC50 GLP1R 02/19): 0.02 nM
EC50 (human GLP-1R; unnumbered table, run 3/25, read-out: EC50 GLP1R 3/25): 0.03 nM
EC50 (human GLP-1R; unnumbered table, run 03/26, read-out: EC50 GLP1R 03/26): 0.03 nM
